{
  "source": "patent US20170268035",
  "about": "“GENOMIC PROBES” (Howard Hughes Medical Institute, published 2017)",
  "binders": {"B1": {"name": "DY547-sgMajSat (ssRNA)", "RNA": "CCAUAUUCCACGUCCUACAGGUUUAAGAGCUAUGCUGGAAACAGCAUAGCAAGUUUAAAUAAGGCUAGUCCGUUAUCAACUUGAAAAAGUGGCACCGAGUCGGUGCUUUUUUU"}, "B2": {"name": "DY547-sgMajSat ; major satellite target DNA (ssRNA ; dsDNA)", "RNA": "CCAUAUUCCACGUCCUACAGGUUUAAGAGCUAUGCUGGAAACAGCAUAGCAAGUUUAAAUAAGGCUAGUCCGUUAUCAACUUGAAAAAGUGGCACCGAGUCGGUGCUUUUUUU", "DNA 1": "TTTCTTGCCATATTCCACGTCCTACAGTGG", "DNA 2": "CCACTGTAGGACGTGGAATATGGCAAGAAA"}},
  "key": {"[1]": {"target": "T1, dCas9-Halo (D10A/H840A SpCas9, nuclease-deficient) (Streptococcus pyogenes, UniProt Q99ZW2 SEQ:8-1375)", "T1 chain": "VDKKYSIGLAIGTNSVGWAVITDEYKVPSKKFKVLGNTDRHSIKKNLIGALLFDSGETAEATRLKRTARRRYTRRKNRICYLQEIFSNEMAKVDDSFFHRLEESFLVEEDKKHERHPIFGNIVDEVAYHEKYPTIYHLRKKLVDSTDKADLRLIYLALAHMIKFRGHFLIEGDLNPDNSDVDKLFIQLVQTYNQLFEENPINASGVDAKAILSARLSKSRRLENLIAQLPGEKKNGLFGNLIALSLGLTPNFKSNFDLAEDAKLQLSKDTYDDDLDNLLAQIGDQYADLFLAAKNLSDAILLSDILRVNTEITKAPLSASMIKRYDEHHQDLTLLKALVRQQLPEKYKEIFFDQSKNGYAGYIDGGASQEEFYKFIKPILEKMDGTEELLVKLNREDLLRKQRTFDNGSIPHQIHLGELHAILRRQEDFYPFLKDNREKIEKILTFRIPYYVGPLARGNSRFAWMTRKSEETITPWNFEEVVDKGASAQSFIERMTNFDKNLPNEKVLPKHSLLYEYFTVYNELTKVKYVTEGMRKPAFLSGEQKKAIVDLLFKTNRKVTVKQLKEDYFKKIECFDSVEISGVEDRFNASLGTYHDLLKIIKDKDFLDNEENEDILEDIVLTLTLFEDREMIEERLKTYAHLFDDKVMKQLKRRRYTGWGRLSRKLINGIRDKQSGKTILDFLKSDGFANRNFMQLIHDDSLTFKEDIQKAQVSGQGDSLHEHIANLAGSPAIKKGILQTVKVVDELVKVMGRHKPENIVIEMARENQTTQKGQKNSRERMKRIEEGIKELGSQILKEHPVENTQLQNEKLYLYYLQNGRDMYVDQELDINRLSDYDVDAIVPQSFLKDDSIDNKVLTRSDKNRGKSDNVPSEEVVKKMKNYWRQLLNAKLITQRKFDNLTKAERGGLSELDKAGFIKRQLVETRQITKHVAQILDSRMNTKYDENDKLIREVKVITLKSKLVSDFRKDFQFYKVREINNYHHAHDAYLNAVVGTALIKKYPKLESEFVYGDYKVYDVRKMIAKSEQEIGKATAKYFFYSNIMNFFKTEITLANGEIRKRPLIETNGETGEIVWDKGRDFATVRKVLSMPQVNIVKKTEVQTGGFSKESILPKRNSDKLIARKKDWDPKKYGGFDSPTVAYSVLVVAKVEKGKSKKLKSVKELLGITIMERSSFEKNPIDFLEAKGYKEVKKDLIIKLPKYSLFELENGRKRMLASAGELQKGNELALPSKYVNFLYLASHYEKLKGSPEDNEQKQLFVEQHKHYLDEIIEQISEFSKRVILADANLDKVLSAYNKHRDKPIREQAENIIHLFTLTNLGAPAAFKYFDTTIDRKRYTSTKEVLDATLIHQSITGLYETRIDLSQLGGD", "test": "EMSA; binary complex; 100-fold unlabelled sgRNA did not displace; room temperature", "conditions": "tags: N-terminal His6, C-terminal HaloTag; JF549 or JF646 Halo ligand labelled; label: 5'-DY547", "procedure": "The stability of the complex is evident from the lack of competition. The control lane (ctrl) indicates the reaction product from a mixture of Cy5 DNA and 30-fold of unlabeled target DNA with dCas9/sgRNA binary complex. As expected, only a small fraction of Cy5-DNA was incorporated into the dCas9 tertiary complex. (B) Competition EMSAs assessing the stability of the binary complex. (B, Left) The indicated fluorescent binary complex was assembled at room temperature for 10 min and incubated further with the indicated fold-amounts of unlabeled sgMajSat at room temperature for 10 min. Unlabeled target DNA was added to the solution subsequently to form a tertiary complex followed by gel electrophoresis. (B, Right) The DY547 intensity of the bands of the tertiary complex plotted as a histogram. The stability of the binary complex of dCas9 and DY547-sgRNA is evident from the lack of competition. The control lane (ctrl) indicates the reaction product from the binary complex formed by a mixture of DY547-sgMajSat and 100-fold of unlabeled sgMajSat with dCas9 protein. As expected, only a small fraction of DY547-sgMajSat was incorporated into the dCas9 tertiary complex. (C) Schematic of two-color CASFISH methods. […]\nTo explore the possibility of applying multiple dCas9/sgRNA species in one step for multicolor imaging, we assessed the stability of the binary complex by sgRNA competition assay."}, "[2]": {"target": "T1, dCas9-Halo (D10A/H840A SpCas9, …)", "test": "EMSA; PAM TGG; tertiary complex stable to 100-fold competitor DNA and 1.5 h with 30-fold; 37 C", "conditions": "tags: N-terminal His6, C-terminal HaloTag; JF549 or JF646 Halo ligand labelled; label: 5'-DY547; Cy5 (EMSA)", "procedure": "The stability of the complex is evident from the lack of competition. Error bars represent SD of three independent experiments.\ndCas9 protein and sgRNA were incubated together at room temperature for 10 min to examine the binary complex and subsequently were incubated with target DNA at 37° C. for 15 min to examine the tertiary complex. For the competition assay, an additional binary or tertiary complex reaction was performed after the addition of the competitor molecules. Resulting reaction mixtures were subjected to electrophoresis of 1% agarose gel in 1× Tris/borate/EDTA buffer containing 5 mM MgCl2 and were imaged with GE Typhoon Trio+Imagers.\nSimultaneous imaging of multiple chromatin domains or genes is critical for studying chromatin interactions. To explore the possibility of using CASFISH to detect multiple DNA targets simultaneously, we first investigated the binding of CASFISH probes to target DNA by electrophoretic mobility shift assays (EMSA). […] To examine the stability of dCas9/sgMajSat binding to its target DNA, we carried out competition assays by adding excessive amounts of unlabeled target DNA to a preformed tertiary complex of JF549-dCas9/sgMajSat/Cy5-DNA. […]"}},
  "data": [
    {"binder": "B1", "values": [
      {"measurement": "binding result", "setting": "[1]", "result": "binds"}
    ]},
    {"binder": "B2", "values": [
      {"measurement": "binding result", "setting": "[2]", "result": "binds"}
    ]}
  ]
}
